This is an account of results in the supplement of paper PMC5998384.

In data set [1] the test system is HeLa Kyoto. Put plainly: solubility in G1/S (NP-40 vs SDS abundance) (log2 ratio); higher = more soluble. The following applies: cell cycle stage: G1/S.
Data set [2] deals with HeLa Kyoto. In words: thermal stability score vs G1/S (z-score of summed log2 fold changes over temperatures); higher = more thermally stable than in G1/S.
The subject of data set [3] is HeLa Kyoto. Put plainly: melting temperature (median over replicates), in situ; higher = more thermally stable.
Data set [4] concerns HeLa Kyoto. Put plainly: solubility change mitosis vs G1/S (difference of NP-40 vs SDS log2 ratios) (log2 ratio difference); higher = more soluble in mitosis.
Setting [5] is: cell cycle stage: early G1 (4.5 h after nocodazole release).
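Wherever melting temperature (median over replicates), in situ is given: HeLa Kyoto cells synchronized by double thymidine or nocodazole block, proteins quantified by TMT10plex mass spectrometry, three independent biological replicates.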
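Wherever solubility change mitosis vs G1/S (difference of NP-40 vs SDS log2 ratios) is given: synchronized HeLa Kyoto cells (double thymidine block for G1/S, nocodazole release for mitosis), protein amounts in NP-40 versus SDS lysates quantified by mass spectrometry, three biological replicates.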
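Wherever solubility in G1/S (NP-40 vs SDS abundance) is given: HeLa Kyoto cells arrested at G1/S by double thymidine block, proteins quantified by TMT10plex mass spectrometry in mild NP-40 versus SDS extracts, three biological replicates.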
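Wherever thermal stability score vs G1/S (z-score of summed log2 fold changes over temperatures) is given: synchronized HeLa Kyoto cells, proteins quantified by TMT10plex mass spectrometry, three biological replicates, mitosis taken 0.5 h after nocodazole release, G1/S directly after double thymidine block.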

Regarding “MADNEKLDNQRLKNFKNKGRDLETMRRQRNEVVVELRKNKRDEHLLKRRNVPHEDICEDSDIDGDYRVQNTSLEAIVQNASSDNQGIQLSAVQAARKLLSSDRNPPIDDLIKSGILPILVHCLERDDNPSLQFEAAWALTNIASGTSEQTQAVVQSNAVPLFLRLLHSPHQNVCEQAVWALGNIIGDGPQCRDYVISLGVVKPLLSFISPSIPITFLRNVTWVMVNLCRHKDPPPPMETIQEILPALCVLIHHTDVNILVDTVWALSYLTDAGNEQIQMVIDSGIVPHLVPLLSHQEVKVQTAALRAVGNIVTGTDEQTQVVLNCDALSHFPALLTHPKEKINKEAVWFLSNITAGNQQQVQAVIDANLVPMIIHLLDKGDFGTQKEAAWAISNLTISGRKDQVAYLIQQNVIPPFCNLLTVKDAQVVQVVLDGLSNILKMAEDEAETIGNLIEECGGLEKIEQLQNHENEDIYKLAYEIIDQFFSSDDIDEDPSLVPEAIQGGTFGFNSSANVPTEGFQF [KPNA4]”, the “solubility in G1/S (log2)” value in data set [1] worked out at 0.0932. Further, the thermal stability score in data set [2] (setting [5]) was -0.466; in data set [2] (cell cycle stage: mitosis) it was -0.221. Also, the melting temperature in data set [3] (cell cycle stage: G1/S) is 52.3 °C; in data set [3] (cell cycle stage: mitosis), 51.9 °C. Also, in data set [4], the “solubility change mitosis (log2)” value is -0.0591.

With “MADTQYILPNDIGVSSLDCREAFRLLSPTERLYAYHLSRAAWYGGLAVLLQTSPEAPYIYALLSRLFRAQDPDQLRQHALAEGLTEEEYQAFLVYAAGVYSNMGNYKSFGDTKFVPNLPKEKLERVILGSEAAQQHPEEVRGLWQTCGELMFSLEPRLRHLGLGKEGITTYFSGNCTMEDAKLAQDFLDSQNLSAYNTRLFKEVDGEGKPYYEVRLASVLGSEPSLDSEVTSKLKSYEFRGSPFQVTRGDYAPILQKVVEQLEKAKAYAANSHQGQMLAQYIESFTQGSIEAHKRGSRFWIQDKGPIVESYIGFIESYRDPFGSRGEFEGFVAVVNKAMSAKFERLVASAEQLLKELPWPPTFEKDKFLTPDFTSLDVLTFAGSGIPAGINIPNYDDLRQTEGFKNVSLGNVLAVAYATQREKLTFLEEDDKDLYILWKGPSFDVQVGLHELLGHGSGKLFVQDEKGAFNFDQETVINPETGEQIQSWYRSGETWDSKFSTIASSYEECRAESVGLYLCLHPQVLEIFGFEGADAEDVIYVNWLNMVRAGLLALEFYTPEAFNWRQAHMQARFVILRVLLEAGEGLVTITPTTGSDGRPDARVRLDRSKIRSVGKPALERFLRRLQVLKSTGDVAGGRALYEGYATVTDAPPECFLTLRDTVLLRKESRKLIVQPNTRLEGSDVQLLEYEASAAGLIRSFSERFPEDGPELEEILTQLATADARFWKGPSEAPSGQA [DPP3]”, the “solubility in G1/S (log2)” value in data set [1] turned out to be 0.153. The thermal stability score in data set [2] (setting [5]) was -0.363; in data set [2] (cell cycle stage: mitosis), -1.69. Further, the melting temperature in data set [3] (cell cycle stage: G1/S) was found to be 53.8 °C; in data set [3] (cell cycle stage: mitosis), 53 °C. The “solubility change mitosis (log2)” value in data set [4] was -0.14.

On to “MADYSTVPPPSSGSAGGGGGGGGGGGVNDAFKDALQRARQIAAKIGGDAGTSLNSNDYGYGGQKRPLEDGDQPDAKKVAPQNDSFGTQLPPMHQQQSRSVMTEEYKVPDGMVGFIIGRGGEQISRIQQESGCKIQIAPDSGGLPERSCMLTGTPESVQSAKRLLDQIVEKGRPAPGFHHGDGPGNAVQEIMIPASKAGLVIGKGGETIKQLQERAGVKMVMIQDGPQNTGADKPLRITGDPYKVQQAKEMVLELIRDQGGFREVRNEYGSRIGGNEGIDVPIPRFAVGIVIGRNGEMIKKIQNDAGVRIQFKPDDGTTPERIAQITGPPDRCQHAAEIITDLLRSVQAGNPGGPGPGGRGRGRGQGNWNMGPPGGLQEFNFIVPTGKTGLIIGKGGETIKSISQQSGARIELQRNPPPNADPNMKLFTIRGTPQQIDYARQLIEEKIGGPVNPLGPPVPHGPHGVPGPHGPPGPPGPGTPMGPYNPAPYNPGPPGPAPHGPPAPYAPQGWGNAYPHWQQQAPPDPAKAGTDPNSAAWAAYYAHYYQQQAQPPPAAPAGAPTTTQTNGQGDQQNPAPAGQVDYTKAWEEYYKKMGQAVPAPTGAPPGGQPDYSAAWAEYYRQQAAYYAQTSPQGMPQHPPAPQGQ [FUBP1]”, for which the “solubility in G1/S (log2)” value in data set [1] came to 0.527. For the same sequence, the thermal stability score in data set [2] (setting [5]) was -0.104; in data set [2] (cell cycle stage: mitosis) it was -0.787. In addition, the melting temperature in data set [3] (cell cycle stage: G1/S) worked out at 57 °C; in data set [3] (cell cycle stage: mitosis) it was 56.4 °C. The “solubility change mitosis (log2)” value in data set [4] turned out to be 0.0996.

Take “MAEAEEQETGSLEESTDESEEEESEEEPKLKYERLSNGVTEILQKDAASCMTVHDKFLALGTHYGKVYLLDVQGNITQKFDVSPVKINQISLDESGEHMGVCSEDGKVQVFGLYSGEEFHETFDCPIKIIAVHPHFVRSSCKQFVTGGKKLLLFERSWMNRWKSAVLHEGEGNIRSVKWRGHLIAWANNMGVKIFDIISKQRITNVPRDDISLRPDMYPCSLCWKDNVTLIIGWGTSVKVCSVKERHASEMRDLPSRYVEIVSQFETEFYISGLAPLCDQLVVLSYVKEISEKTEREYCARPRLDIIQPLSETCEEISSDALTVRGFQENECRDYHLEYSEGESLFYIVSPRDVVVAKERDQDDHIDWLLEKKKYEEALMAAEISQKNIKRHKILDIGLAYINHLVERGDYDIAARKCQKILGKNAALWEYEVYKFKEIGQLKAISPYLPRGDPVLKPLIYEMILHEFLESDYEGFATLIREWPGDLYNNSVIVQAVRDHLKKDSQNKTLLKTLAELYTYDKNYGNALEIYLTLRHKDVFQLIHKHNLFSSIKDKIVLLMDFDSEKAVDMLLDNEDKISIKKVVEELEDRPELQHVYLHKLFKRDHHKGQRYHEKQISLYAEYDRPNLLPFLRDSTHCPLEKALEICQQRNFVEETVYLLSRMGNSRSALKMIMEELHDVDKAIEFAKEQDDGELWEDLILYSIDKPPFITGLLNNIGTHVDPILLIHRIKEGMEIPNLRDSLVKILQDYNLQILLREGCKKILVADSLSLLKKMHRTQMKGVLVDEENICESCLSPILPSDAAKPFSVVVFHCRHMFHKECLPMPSMNSAAQFCNICSAKNRGPGSAILEMKK [VPS41]”: the “solubility in G1/S (log2)” value in data set [1] was -0.0889. The figures for the thermal stability score in data set [2] (setting [5]) and in data set [2] (cell cycle stage: mitosis) were 0.549 and 0.342, respectively. For the same sequence, the melting temperature came out at 50.2 °C in data set [3] (cell cycle stage: G1/S) and 49.8 °C in data set [3] (cell cycle stage: mitosis). Further, the “solubility change mitosis (log2)” value in data set [4] was -0.131.
